Measured values taken from the supplement of paper PMC5998384.

Legend:
HeLa Kyoto [1] = assay: solubility change mitosis vs G1/S (difference of NP-40 vs SDS log2 ratios) (log2 ratio difference); higher = more soluble in mitosis
HeLa Kyoto [2] = assay: solubility in G1/S (NP-40 vs SDS abundance) (log2 ratio); higher = more soluble; conditions: cell cycle stage: G1/S
HeLa Kyoto [3] = assay: thermal stability score vs G1/S (z-score of summed log2 fold changes over temperatures); higher = more thermally stable than in G1/S
HeLa Kyoto [4] = assay: melting temperature (median over replicates), in situ; higher = more thermally stable
[5] = cell cycle stage: early G1 (4.5 h after nocodazole release)
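Throughout, for melting temperature (median over replicates), in situ: HeLa Kyoto cells synchronized by double thymidine or nocodazole block, proteins quantified by TMT10plex mass spectrometry, three independent biological replicates.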
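Throughout, for solubility change mitosis vs G1/S (difference of NP-40 vs SDS log2 ratios): synchronized HeLa Kyoto cells (double thymidine block for G1/S, nocodazole release for mitosis), protein amounts in NP-40 versus SDS lysates quantified by mass spectrometry, three biological replicates.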
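Throughout, for solubility in G1/S (NP-40 vs SDS abundance): HeLa Kyoto cells arrested at G1/S by double thymidine block, proteins quantified by TMT10plex mass spectrometry in mild NP-40 versus SDS extracts, three biological replicates.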
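Throughout, for thermal stability score vs G1/S (z-score of summed log2 fold changes over temperatures): synchronized HeLa Kyoto cells, proteins quantified by TMT10plex mass spectrometry, three biological replicates, mitosis taken 0.5 h after nocodazole release, G1/S directly after double thymidine block.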

Sequence	solubility change mitosis (log2) (HeLa Kyoto [1])	solubility in G1/S (log2) (HeLa Kyoto [2])	thermal stability score (HeLa Kyoto [3]; [5])	thermal stability score (HeLa Kyoto [3]; cell cycle stage: mitosis)	melting temperature (HeLa Kyoto [4]; cell cycle stage: G1/S) [°C]	melting temperature (HeLa Kyoto [4]; cell cycle stage: mitosis) [°C]
MFFTCGPNEAMVVSGFCRSPPVMVAGGRVFVLPCIQQIQRISLNTLTLNVKSEKVYTRHGVPISVTGIAQVKIQGQNKEMLAAACQMFLGKTEAEIAHIALETLEGHQRAIMAHMTVEEIYKDRQKFSEQVFKVASSDLVNMGISVVSYTLKDIHDDQDYLHSLGKARTAQVQKDARIGEAEAKRDAGIREAKAKQEKVSAQYLSEIEMAKAQRDYELKKAAYDIEVNTRRAQADLAYQLQVAKTKQQIEEQRVQVQVVERAQQVAVQEQEIARREKELEARVRKPAEAERYKLERLAEAEKSQLIMQAEAEAASVRMRGEAEAFAIGARARAEAEQMAKKAEAFQLYQEAAQLDMLLEKLPQVAEEISGPLTSANKITLVSSGSGTMGAAKVTGEVLDILTRLPESVERLTGVSISQVNHKPLRTA [FLOT1]	0.121	-0.837	-2.16	0.224	55.3	53.7
MFISLWEFFYGHFFRFWMKWLLRQMTGKCELQRIFDTYVGAQRTHRIENSLTYSKNKVLQKATHVVQSEVDKYVDDIMKEKNINPEKDASFKICMKMCLLQITGYKQLYLDVESVRKRPYDSDNLQHEELLMKLWNLLMPTKKLNARISKQWAEIGFQGDDPKTDFRGMGILGLINLVYFSENYTSEAHQILSRSNHPKLGYSYAIVGINLTEMAYSLLKSEALKFHLYNLVPGIPTMEHFHQFYCYLVYEFDKFWFEEEPESIMYFNLYREKFHEKIKGLLLDCNVALTLKV [ELMOD2]	-0.25	-0.348	-0.373	-0.0202	51.5	51.3
MFKNTFQSGFLSILYSIGSKPLQIWDKKVRNGHIKRITDNDIQSLVLEIEGTNVSTTYITCPADPKKTLGIKLPFLVMIIKNLKKYFTFEVQVLDDKNVRRRFRASNYQSTTRVKPFICTMPMRLDDGWNQIQFNLLDFTRRAYGTNYIETLRVQIHANCRIRRVYFSDRLYSEDELPAEFKLYLPVQNKAKQ [CFAP20]	-0.00426	-0.154	-0.133	0.199	50.9	51
MFLLPLPAAGRVVVRRLAVRRFGSRSLSTADMTKGLVLGIYSKEKEDDVPQFTSAGENFDKLLAGKLRETLNISGPPLKAGKTRTFYGLHQDFPSVVLVGLGKKAAGIDEQENWHEGKENIRAAVAAGCRQIQDLELSSVEVDPCGDAQAAAEGAVLGLYEYDDLKQKKKMAVSAKLYGSGDQEAWQKGVLFASGQNLARQLMETPANEMTPTRFAEIIEKNLKSASSKTEVHIRPKSWIEEQAMGSFLSVAKGSDEPPVFLEIHYKGSPNANEPPLVFVGKGITFDSGGISIKASANMDLMRADMGGAATICSAIVSAAKLNLPINIIGLAPLCENMPSGKANKPGDVVRAKNGKTIQVDNTDAEGRLILADALCYAHTFNPKVILNAATLTGAMDVALGSGATGVFTNSSWLWNKLFEASIETGDRVWRMPLFEHYTRQVVDCQLADVNNIGKYRSAGACTAAAFLKEFVTHPKWAHLDIAGVMTNKDEVPYLRKGMTGRPTRTLIEFLLRFSQDNA [LAP3]	-0.0176	0.187	-5.49	-3.93	53.8	52.6
MFLYNLTLQRATGISFAIHGNFSGTKQQEIVVSRGKILELLRPDPNTGKVHTLLTVEVFGVIRSLMAFRLTGGTKDYIVVGSDSGRIVILEYQPSKNMFEKIHQETFGKSGCRRIVPGQFLAVDPKGRAVMISAIEKQKLVYILNRDAAARLTISSPLEAHKANTLVYHVVGVDVGFENPMFACLEMDYEEADNDPTGEAAANTQQTLTFYELDLGLNHVVRKYSEPLEEHGNFLITVPGGSDGPSGVLICSENYITYKNFGDQPDIRCPIPRRRNDLDDPERGMIFVCSATHKTKSMFFFLAQTEQGDIFKITLETDEDMVTEIRLKYFDTVPVAAAMCVLKTGFLFVASEFGNHYLYQIAHLGDDDEEPEFSSAMPLEEGDTFFFQPRPLKNLVLVDELDSLSPILFCQIADLANEDTPQLYVACGRGPRSSLRVLRHGLEVSEMAVSELPGNPNAVWTVRRHIEDEFDAYIIVSFVNATLVLSIGETVEEVTDSGFLGTTPTLSCSLLGDDALVQVYPDGIRHIRADKRVNEWKTPGKKTIVKCAVNQRQVVIALTGGELVYFEMDPSGQLNEYTERKEMSADVVCMSLANVPPGEQRSRFLAVGLVDNTVRIISLDPSDCLQPLSMQALPAQPESLCIVEMGGTEKQDELGERGSIGFLYLNIGLQNGVLLRTVLDPVTGDLSDTRTRYLGSRPVKLFRVRMQGQEAVLAMSSRSWLSYSYQSRFHLTPLSYETLEFASGFASEQCPEGIVAISTNTLRILALEKLGAVFNQVAFPLQYTPRKFVIHPESNNLIIIETDHNAYTEATKAQRKQQMAEEMVEAAGEDERELAAEMAAAFLNENLPESIFGAPKAGNGQWASVIRVMNPIQGNTLDLVQLEQNEAAFSVAVCRFSNTGEDWYVLVGVAKDLILNPRSVAGGFVYTYKLVNNGEKLEFLHKTPVEEVPAAIAPFQGRVLIGVGKLLRVYDLGKKKLLRKCENKHIANYISGIQTIGHRVIVSDVQESFIWVRYKRNENQLIIFADDTYPRWVTTASLLDYDTVAGADKFGNICVVRLPPNTNDEVDEDPTGNKALWDRGLLNGASQKAEVIMNYHVGETVLSLQKTTLIPGGSESLVYTTLSGGIGILVPFTSHEDHDFFQHVEMHLRSEHPPLCGRDHLSFRSYYFPVKNVIDGDLCEQFNSMEPNKQKNVSEELDRTPPEVSKKLEDIRTRYAF [SF3B3]	0.0933	-0.389	-1	-1.81	52.4	51.6
MFPFGPHSPGGDGSAGAGAEEPTPHEGQAAATGPPSPLHPGADATHPPPPARSPRRPGAPSLSPAPRSGELGLPGAPESSTASAPGEPSPPSPPCRRPGPDCRAKSRGRHGLGAGLGGPGARLFGWLKERSLGRGLFVDPARDNFRTMTSLYGSIHPADSVYLSTRTHGAVFNLEYSPDGSVLTVACEQTEVLLFDPISSKHIKTLSEAHEDCVNNIRFLDNRLFATCSDDTTIALWDLRKLNTKVCTLHGHTSWVKNIEYDTNTRLLVTSGFDGNVIIWDTNRYTEDGCPHKKFFHTRFLMRMRLTPDCSKMLISTSSGYLLILHDLDLTKSLEVGSYPILRARRTTSSSDLTTSSSSSGPRVSGSPCHHSDSNSSEKHMSRASQREGVSPRNSLEVVTPEVLGESDHGNCITSLQLHPKGWATLLRCSSNSDDEECTCVYEFQEGAPVRPVSPRCSLRLTHYIEEANVGRGYIKELCFSPDGRMISSPHGYGIRLLGFDKQCSELVDCLPKEASPLRVIRSLYSHNDVVLTTKFSPTHCQIASGCLSGRVSLYQPKF [DCAF10]	-0.0652	-0.0366	-2.74	-3.62	53.7	51.2
MFRFMRDVEPEDPMFLMDPFAIHRQHMSRMLSGGFGYSPFLSITDGNMPGTRPASRRMQQAGAVSPFGMLGMSGGFMDMFGMMNDMIGNMEHMTAGGNCQTFSSSTVISYSNTGDGAPKVYQETSEMRSAPGGIRETRRTVRDSDSGLEQMSIGHHIRDRAHILQRSRNHRTGDQEERQDYINLDESEAAAFDDEWRRETSRFRQQRPLEFRRLESSGAGGRRAEGPPRLAIQGPEDSPSRQSRRYDW [MLF2]	-0.0421	0.236	1.43	5.61	46.2	–
MFRLNSLSALAELAVGSRWYHGGSQPIQIRRRLMMVAFLGASAVTASTGLLWKRAHAESPPCVDNLKSDIGDKGKNKDEGDVCNHEKKTADLAPHPEEKKKKRSGFRDRKVMEYENRIRAYSTPDKIFRYFATLKVISEPGEAEVFMTPEDFVRSITPNEKQPEHLGLDQYIIKRFDGKKISQEREKFADEGSIFYTLGECGLISFSDYIFLTTVLSTPQRNFEIAFKMFDLNGDGEVDMEEFEQVQSIIRSQTSMGMRHRDRPTTGNTLKSGLCSALTTYFFGADLKGKLTIKNFLEFQRKLQHDVLKLEFERHDPVDGRITERQFGGMLLAYSGVQSKKLTAMQRQLKKHFKEGKGLTFQEVENFFTFLKNINDVDTALSFYHMAGASLDKVTMQQVARTVAKVELSDHVCDVVFALFDCDGNGELSNKEFVSIMKQRLMRGLEKPKDMGFTRLMQAMWKCAQETAWDFALPKQ [MICU1]	-0.00566	-0.299	1.14	1.13	52.2	51.3
MFSKLAHLQRFAVLSRGVHSSVASATSVATKKTVQGPPTSDDIFEREYKYGAHNYHPLPVALERGKGIYLWDVEGRKYFDFLSSYSAVNQGHCHPKIVNALKSQVDKLTLTSRAFYNNVLGEYEEYITKLFNYHKVLPMNTGVEAGETACKLARKWGYTVKGIQKYKAKIVFAAGNFWGRTLSAISSSTDPTSYDGFGPFMPGFDIIPYNDLPALERALQDPNVAAFMVEPIQGEAGVVVPDPGYLMGVRELCTRHQVLFIADEIQTGLARTGRWLAVDYENVRPDIVLLGKALSGGLYPVSAVLCDDDIMLTIKPGEHGSTYGGNPLGCRVAIAALEVLEEENLAENADKLGIILRNELMKLPSDVVTAVRGKGLLNAIVIKETKDWDAWKVCLRLRDNGLLAKPTHGDIIRFAPPLVIKEDELRESIEIINKTILSF [OAT]	-0.168	0.246	0.897	-0.508	52.8	53
MFSLDSFRKDRAQHRQRQCKLPPPRLPPMCVNPTPGGTISRASRDLLKEFPQPKNLLNSVIGRALGISHAKDKLVYVHTNGPKKKKVTLHIKWPKSVEVEGYGSKKIDAERQAAAAACQLFKGWGLLGPRNELFDAAKYRVLADRFGSPADSWWRPEPTMPPTSWRQLNPESIRPGGPGGLSRSLGREEEEDEEEELEEGTIDVTDFLSMTQQDSHAPLRDSRGSSFEMTDDDSAIRALTQFPLPKNLLAKVIQIATSSSTAKNLMQFHTVGTKTKLSTLTLLWPCPMTFVAKGRRKAEAENKAAALACKKLKSLGLVDRNNEPLTHAMYNLASLRELGETQRRPCTIQVPEPILRKIETFLNHYPVESSWIAPELRLQSDDILPLGKDSGPLSDPITGKPYVPLLEAEEVRLSQSLLELWRRRGPVWQEAPQLPVDPHRDTILNAIEQHPVVVISGDTGCGKTTRIPQLLLERYVTEGRGARCNVIITQPRRISAVSVAQRVSHELGPSLRRNVGFQVRLESKPPSRGGALLFCTVGILLRKLQSNPSLEGVSHVIVDEVHERDVNTDFLLILLKGLQRLNPALRLVLMSATGDNERFSRYFGGCPVIKVPGFMYPVKEHYLEDILAKLGKHQYLHRHRHHESEDECALDLDLVTDLVLHIDARGEPGGILCFLPGWQEIKGVQQRLQEALGMHESKYLILPVHSNIPMMDQKAIFQQPPVGVRKIVLATNIAETSITINDIVHVVDSGLHKEERYDLKTKVSCLETVWVSRANVIQRRGRAGRCQSGFAYHLFPRSRLEKMVPFQVPEILRTPLENLVLQAKIHMPEKTAVEFLSKAVDSPNIKAVDEAVILLQEIGVLDQREYLTTLGQRLAHISTDPRLAKAIVLAAIFRCLHPLLVVVSCLTRDPFSSSLQNRAEVDKVKALLSHDSGSDHLAFVRAVAGWEEVLRWQDRSSRENYLEENLLYAPSLRFIHGLIKQFSENIYEAFLVGKPSDCTLASAQCNEYSEEEELVKGVLMAGLYPNLIQVRQGKVTRQGKFKPNSVTYRTKSGNILLHKSTINREATRLRSRWLTYFMAVKSNGSVFVRDSSQVHPLAVLLLTDGDVHIRDDGRRATISLSDSDLLRLEGDSRTVRLLKELRRALGRMVERSLRSELAALPPSVQEEHGQLLALLAELLRGPCGSFDVRKTADD [DHX30]	0.218	-1.02	-0.697	-0.349	51.1	51.2
